# Reference: patent US7919577B2, “Adrenocorticotropic hormone analogs and related methods” (Colorado Seminary, priority 2004, dated 2011)
# No end group written: not given here.
# Target: T1, adrenal ACTH receptors such as MC-2R (explanted adrenal membrane) (Mus musculus, UniProt Q64326+Q9D159)
# T1 construct: the adrenal halves were macerated or otherwise dissociated using Dounce Homogenizer to form a membrane fraction; from tissue; host or cells: mouse adrenal glands (explanted, homogenised to a membrane fraction)
# T1 sequence (Q64326 whole entry): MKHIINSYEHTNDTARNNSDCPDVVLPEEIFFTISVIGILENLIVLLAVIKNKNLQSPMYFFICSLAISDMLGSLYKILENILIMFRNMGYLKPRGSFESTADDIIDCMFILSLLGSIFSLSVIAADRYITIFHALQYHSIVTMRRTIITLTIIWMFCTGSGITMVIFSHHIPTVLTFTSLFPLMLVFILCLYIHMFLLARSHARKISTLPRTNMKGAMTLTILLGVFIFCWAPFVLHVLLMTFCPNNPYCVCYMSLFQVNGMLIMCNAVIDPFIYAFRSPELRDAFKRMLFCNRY
# T1 sequence (Q9D159 whole entry): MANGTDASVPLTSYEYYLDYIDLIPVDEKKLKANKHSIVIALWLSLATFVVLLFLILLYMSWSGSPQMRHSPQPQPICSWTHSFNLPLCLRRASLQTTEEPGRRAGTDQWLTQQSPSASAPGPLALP
# Experiment: in vitro Serum-free Adrenal Competitive Binding Assay (Example 3)
# Conditions: cold peptide at 10 nM, 100 nM, 1000 nM; CPM; FIG. 3
# Excerpt: ACTH analog compounds that bind to adrenal membrane with a greater affinity than endogenous unmodified ACTH, and are able to displace unmodified ACTH can be identified using an in vitro Serum-free Adrenal Competitive Binding Assay (Example 3). […] A higher CPM level indicates the presence of greater amounts of the radiolabelled compound. […] Column 220 indicates the level of radio-labeled unmodified mACTH(1-24) detected after combining the explanted adrenal membrane with only the radio-labeled mACTH(1-24) for 2 hours (no competitive binding). Columns 230, 240, and 250 show the results of competitive binding assays for binding of non-radio-labeled (“cold”) mACTH(1-24) to displace the radio-labeled mACTH(1-24) from the explanted adrenal membrane (measured in column 220) by competitive binding to receptors such as MC-2R on the adrenal membrane. […]
# ACTH analogs with the ability to bind adrenal receptors with a greater affinity than compounds with known adrenal binding activity (preferably ACTH) can also be identified by performing an in vitro Adrenal Competitive Binding Assay, whereby measurement of the reduction in the amount of the radiolabelled adrenal-binding compound (e.g., ACTH) is measured at various concentrations of non-radio-labeled ACTH analog test compound in a medium containing explanted adrenal membrane. […]
substance,measurement,value
N-Ser^1-Tyr-Ser-Met-Glu^5-His-Phe-Arg-Trp-Gly^10-Lys-Pro-Val-Gly-Lys^15-Arg-Ala-Ala-Trp-Val^20-Lys-Val-Tyr-Pro-Ac (SYSMEHFRWGKPVGKRAAWVKVYP; not fully specified; printed as N-Ser1-Tyr-Ser-Met-Glu5-His-Phe-Arg-Trp-Gly10-Lys-Pro-Val-Gly-Lys15-Arg-Ala-Ala-Trp-Val20-Lys-Val-Tyr-Pro-Ac) [AT814],displacement of radio-labeled mACTH(1-24) from explanted adrenal membrane,displacement of the radio-labeled mACTH(1-24)
